B1: Carbonic anhydrase 4 (Homo sapiens), P22748 (parent)
chain: MRMLLALLALSAARPSASAESHWCYEVQAESSNYPCLVPVKWGGNCQKDRQSPINIVTTKAKVDKKLGRFFFSGYDKKQTWTVQNNGHSVMMLLENKASISGGGLPAPYQAKQLHLHWSDLPYKGSEHSLDGEHFAMEMHIVHEKEKGTSRNVKEAQDPEDEIAVLAFLVEAGTQVNEGFQPLVEALSNIPKPEMSTTMAESSLLDLLPKEEKLRHYFRYLGSLTTPTCDEKVVWTVFREPIQLHREQILAFSQKLYYDKEQTVSMKDNVRPLQQLGQRTVIKSGAPGRPLPWALPALLGPMLACLLAGFLR
partner: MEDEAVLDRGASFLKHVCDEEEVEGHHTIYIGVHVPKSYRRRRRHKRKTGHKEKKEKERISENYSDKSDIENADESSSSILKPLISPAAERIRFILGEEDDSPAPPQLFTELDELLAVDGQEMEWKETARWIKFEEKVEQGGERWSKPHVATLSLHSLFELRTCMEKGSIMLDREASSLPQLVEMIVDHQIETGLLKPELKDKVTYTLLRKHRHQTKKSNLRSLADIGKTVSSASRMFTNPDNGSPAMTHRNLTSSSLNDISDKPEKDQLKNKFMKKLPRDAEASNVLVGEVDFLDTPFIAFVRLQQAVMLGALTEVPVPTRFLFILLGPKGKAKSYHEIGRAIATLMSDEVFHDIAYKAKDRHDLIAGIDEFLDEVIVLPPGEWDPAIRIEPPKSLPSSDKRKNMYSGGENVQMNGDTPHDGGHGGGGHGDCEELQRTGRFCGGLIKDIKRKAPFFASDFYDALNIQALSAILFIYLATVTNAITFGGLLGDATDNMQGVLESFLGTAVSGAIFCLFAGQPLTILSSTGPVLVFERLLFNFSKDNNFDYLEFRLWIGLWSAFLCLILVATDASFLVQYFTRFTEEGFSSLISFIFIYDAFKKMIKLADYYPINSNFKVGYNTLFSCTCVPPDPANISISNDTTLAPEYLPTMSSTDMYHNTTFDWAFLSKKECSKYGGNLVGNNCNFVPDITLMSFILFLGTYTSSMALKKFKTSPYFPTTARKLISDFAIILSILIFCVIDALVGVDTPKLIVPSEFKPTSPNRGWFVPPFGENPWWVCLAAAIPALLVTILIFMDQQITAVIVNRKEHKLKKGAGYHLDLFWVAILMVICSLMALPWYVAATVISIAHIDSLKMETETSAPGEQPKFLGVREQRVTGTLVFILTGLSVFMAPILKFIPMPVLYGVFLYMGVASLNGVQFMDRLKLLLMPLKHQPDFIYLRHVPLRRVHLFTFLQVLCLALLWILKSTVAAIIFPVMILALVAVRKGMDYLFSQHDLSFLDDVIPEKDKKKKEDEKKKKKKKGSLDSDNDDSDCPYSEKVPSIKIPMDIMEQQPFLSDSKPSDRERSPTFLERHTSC

Variants of: B1
Conditions: with s4a4_human SLC4A4, Q9Y6R1

Row | Variant | effect of a mutation on the interaction
1 | R14W | decreasing interaction
